Starred links: 1 amine or outer side, 2 acyl side, 3 side chain; linkers in the order of their positions; H or OH if unused. Non-standard residues stand in square brackets, D forms with d. Groups on a side chain read outwards from the residue. *: point of attachment. Fbp = flurbiprofen, CC(C(=O)*)c1ccc(-c2ccccc2)c(F)c1; γGlu = O=C(O)[C@H](CCC(=O)[*:2])N[*:1]
Key:
[1] = molecular target: Hepatitis B surface antigen (hepatitis B virus, UniProt P03138 1-389, fluorescent dye NT-647 (cysteine-reactive Monolith NT Protein Labelling Kit)); assay: MST; proteins labelled with NT-647 held at constant concentration; Comp. 1 or 2 varied from 0.25 μM to 10 mM; PBS with 0.05% Tween-20, pH 7.4; Monolith NT.115, standard glass capillaries; settings: both partners purified
ovalbumin = molecular target: T1, ovalbumin (UniProt P01012 1-386, fluorescent dye NT-647 (cysteine-reactive Monolith NT Protein Labelling Kit)); assay: as above; settings: both partners purified
T1 construct: source: bought: InvivoGen (endotoxin free)
T1 sequence (looked up): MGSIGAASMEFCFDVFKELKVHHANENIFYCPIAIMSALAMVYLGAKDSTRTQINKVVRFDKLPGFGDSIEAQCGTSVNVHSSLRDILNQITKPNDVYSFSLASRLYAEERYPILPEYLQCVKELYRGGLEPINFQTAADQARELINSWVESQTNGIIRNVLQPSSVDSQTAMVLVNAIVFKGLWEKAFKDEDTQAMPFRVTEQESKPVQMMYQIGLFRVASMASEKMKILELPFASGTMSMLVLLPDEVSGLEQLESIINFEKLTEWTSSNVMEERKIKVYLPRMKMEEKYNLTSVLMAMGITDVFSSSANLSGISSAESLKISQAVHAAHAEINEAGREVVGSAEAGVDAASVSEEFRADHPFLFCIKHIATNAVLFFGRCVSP

B1: Fbp-G^DF^DF^DY^DK(γE)2-NH2 (peptide)
peptide: Fbp-G[dF][dF][dY][dK]([γGlu-γGlu])-NH2
SMILES: CC(C(=O)NCC(=O)N[C@H](Cc1ccccc1)C(=O)N[C@H](Cc1ccccc1)C(=O)N[C@H](Cc1ccc(O)cc1)C(=O)N[C@H](CCCCNC(=O)CC[C@H](NC(=O)CC[C@H](N)C(=O)O)C(=O)O)C(N)=O)c1ccc(-c2ccccc2)c(F)c1
notes: also called Comp; supramolecular protein chaperone; source: synthetic peptide (Fmoc SPPS on Rink resin, purified by HPLC)
[1]
  Kd: 68 µM
ovalbumin
  Kd: 83.3 µM

Reference: article PMC6929975, “A supramolecular protein chaperone for vaccine delivery” (Theranostics, 2020)
